The text below walks through data of patent publication US20200385685A1, “ROBUST DIFFERENTIATION OF HUMAN PLURIPOTENT STEM CELLS INTO ENDOTHELIAL CELLS USING TRANSCRIPTION FACTOR ETV2” (Children`s Medical Center Corporation, priority 2019, published 2020).

The test system of data set [1] is h-MPCs. The experiment in a line: Conversion of h-MPCs into h-iECs after transfection with modRNA(ETV2), flow cytometry. The format is cell-based, human. The settings on record: for percentage of h-iECs at 96 h: above 0.5 μg of modRNA(ETV2) per 10^6 h-iPSCs. An excerpt: Antibody information is detailed in Table 8.
For data set [2], the system named is h-MPCs. The experiment in a line: Immunofluorescence staining for ETV2 after transfection with modRNA. As to conditions: 6 h after transfection of h-MPCs. Format: cell-based, human. On the procedure: Cells were seeded in 8-well LAB-TEK chamber slides at a density of 60,000 cell s/cm^2. After confluency, cells were fixed in 4% paraformaldehyde (PFA), permeabilized with 0.1% Triton X-100 in PBS, and then blocked for 30 min in 5% horse serum (Vector, Cat No. 5-2000). Subsequently, cells were incubated with primary antibodies for 30 min at room temperature (RT). Cells were washed 3 times with PBS and then incubated with secondary antibodies for 30 min at RT. Cells were washed 3 times with PBS and stained with 0.5 μg/mL DAPI for 5 min. Slides were mounted with DAKO fluorescence mounting medium (Agilent, Cat No. 5302380-2). Antibody information is detailed in Table 8, above.

Like-named read-outs stand apart in the source and are kept apart here.

Description for h-iPSCs: S1-modETV2 protocol (4 days)—h-iPSCs were dissociated into single cells with TrypLE select and plated on Matrigel at a density of 60,000 cells/cm^2 in mTeSR1 medium with 10 μM Y27632. After 24 h, the medium was changed to S1 medium consisting of basal medium supplemented with 6 μM CHIR99021. Basal medium was prepared by adding 1× GlutaMax supplement and 60 μg/mL L-Ascorbic acid into Advanced DMEM/F12. After 48 h, h-MPCs were dissociated into single cells and then transfected with modRNA(ETV2) by either electroporation or lipofection. For electroporation, 2 million h-MPCs were resuspended in 100 μL buffer mixed with 1 μg modETV2. Electroporated cells were then seeded on a 60-mm Matrigel-coated dish in modETV2 medium consisting of basal medium supplemented with 50 ng/mL VEGF-A, 50 ng/mL FGF-2, 10 ng/mL EGF and 10 μM SB431542. For lipofection, 3 μL lipofectamine RNAiMax (ThermoFisher, Cat No. 13778030) were diluted in 50 μL Opti-MEM (ThermoFisher, Cat No. 31985062) and 0.6 μg modRNA(ETV2) diluted in another 50 μL Opti-MEM. Lipofectamine and modRNA(ETV2) were then mixed and incubated for 15 min at room temperature. The lipid/RNA complex was added to 0.5 million h-MPCs in modETV2 medium and transfected cells were then seeded on a 35-mm Matrigel-coated dish. Upon transfection (electroporation or lipofection), cells were cultured for another 48 h before purification. Medium was changed every day throughout this protocol (Table 2). modRNA encoding GFP (TriLink, Cat No. L-7601) at a concentration of 0.2 μg per million h-MPCs served as negative control.
S1-S2, method #1 (4 days)—h-iPSCs were dissociated into single cells with TrypLE select and plated on Matrigel at a density of 60,000 cells/cm^2 in mTeSR1 medium with 10 μM Y27632. […]
Cells were dissociated into single-cell suspensions using TrypLE and washed with PBS supplemented with 100BSA and 0.2 mM EDTA. In indicated experiments, cells were stained with flow cytometry antibodies and analyzed using a Guava easyCyte 6HT/2L flow cytometer (Millipore Corporation, Billerica, Mass.) and FlowJo software (Tree Star Inc., Ashland, Oreg.). […]

Turning to `Cc1cc(C)c(/C=C2\C(=O)Nc3ccccc32)[nH]1` [SU5416], the “h-iECs at 96 h” value in the data set on h-iPSCs (S1-S2 protocol) is on record as < 2%; in the data set on h-iPSCs (S1-modETV2 protocol), 94%.
With VEGF, in the data set on h-iPSCs (S1-S2 protocol, beyond 50 ng/mL), the “proportion of ETV2+ cells and subsequent conversion to CD31+ h-iECs” value was “failed to further increase”.

B1: modRNA(ETV2): Chemically modified mRNA encoding ETV2, transcript variant 1 (NM_014209.3), SEQ ID NO: 1, generated by TriLink BioTechnologies (nucleic acid, listed as Homo sapiens)
chain: ATGGACCTGTGGAACTGGGATGAGGCATCCCCACAGGAAGTGCCTCCAGGGAACAAGCTGGCAGGGCTTGAAGGAGCCAAATTAGGCTTCTGTTTCCCTGATCTGGCACTCCAAGGGGACACGCCGACAGCGACAGCAGAGACATGCTGGAAAGGTACAAGCTCATCCCTGGCAAGCTTCCCACAGCTGGACTGGGGCTCCGCGTTACTGCACCCAGAAGTTCCATGGGGGGCGGAGCCCGACTCTCAGGCTCTTCCGTGGTCCGGGGACTGGACAGACATGGCGTGCACAGCCTGGGACTCTTGGAGCGGCGCCTCGCAGACCCTGGGCCCCGCCCCTCTCGGCCCGGGCCCCATCCCCGCCGCCGGCTCCGAAGGCGCCGCGGGCCAGAACTGCGTCCCCGTGGCGGGAGAGGCCACCTCGTGGTCGCGCGCCCAGGCCGCCGGGAGCAACACCAGCTGGGACTGTTCTGTGGGGCCCGACGGCGATACCTACTGGGGCAGTGGCCTGGGCGGGGAGCCGCGCACGGACTGTACCATTTCGTGGGGCGGGCCCGCGGGCCCGGACTGTACCACCTCCTGGAACCCGGGGCTGCATGCGGGTGGCACCACCTCTTTGAAGCGGTACCAGAGCTCAGCTCTCACCGTTTGCTCCGAACCGAGCCCGCAGTCGGACCGTGCCAGTTTGGCTCGATGCCCCAAAACTAACCACCGAGGTCCCATTCAGCTGTGGCAGTTCCTCCTGGAGCTGCTCCACGACGGGGCGCGTAGCAGCTGCATCCGTTGGACTGGCAACAGCCGCGAGTTCCAGCTGTGCGACCCCAAAGAGGTGGCTCGGCTGTGGGGCGAGCGCAAGAGAAAGCCGGGCATGAATTACGAGAAGCTGAGCCGGGGCCTTCGCTACTACTATCGCCGCGACATCGTGCGCAAGAGCGGGGGGCGAAAGTACACGTACCGCTTCGGGGGCCGCGTGCCCAGCCTAGCCTATCCGGACTGTGCGGGAGGCGGACGGGGAGCAGAGACACAATAA
modifications: chemically modified nucleosides
For the molecule B1, the “cells that were endothelial (VE-Cadherin+/CD31+ cells)” value in the data set on h-MPCs [1] (48 h after transfection of h-MPCs) came to 95%. Also, the “percentage of h-iECs at 96 h” value in the data set with h-MPCs [1] (electroporation) is given as 95%; in the data set with h-MPCs [1] (lipofection) it was 75%. For the same molecule, the “cells expressing ETV2” value in the data set on h-MPCs [2] is on record as > 85%.
